Experimental findings from patent publication USRE49026 (MEDICAL DIAGNOSTIC LABORATORIES, dated 2022) are described below.

B1: recombinant human IL-23R/Fc chimera (Fc fusion, UniProt Q5VWK5 24-353, looked up)
chain: GITNINCSGHIWVEPATIFKMGMNISIYCQAAIKNCQPRKLHFYKNGIKERFQITRINKTTARLWYKNFLEPHASMYCTAECPKHFQETLICGKDISSGYPPDIPDEVTCVIYEYSGNMTCTWNAGKLTYIDTKYVVHVKSLETEEEQQYLTSSYINISTDSLQGGKKYLVWVQAANALGMEESKQLQIHLDDIVIPSAAVISRAETINATVPKTIIYWDSQTTIEKVSCEMRYKATTNQTWNVKEFDTNFTYVQQSEFYLEPNIKYVFQVRCQETGKRYWQPWSSLFFHKTPETVPQVTSKAFQHDTWNSGLTVASISTGHLTSDNRGD
notes: range 24-353; bought (R&D Systems Cat. No. 1400-IR-050); also called rhIL23R-Fc; IL-23R/Fc fusion protein; not shown: human IgG1 Fc, residues 100-330
B2: recombinant human IL-23 (ligand)
chain 1: RAVPGGSSPAWTQCQQLSQKLCTLAWSAHPLVGHMDLREEGDEETTNDVPHIQCGDGCDPQGLRDNSQFCLQRIHQGLIFYEKLLGSDIFTGEPSLLPDSPVGQLHASLLGLSQLLQPEGHHWETQQIPSLSPSQPWQRLLLRFKILRSLQAFVAVAARVFAHGAATLSP
chain 2: IWELKKDVYVVELDWYPDAPGEMVVLTCDTPEEDGITWTLDQSSEVLGSGKTLTIQVKEFGDAGQYTCHKGGEVLSHSLLLLHKKEDGIWSTDILKDQKEPKNKTFLRCEAKNYSGRFTCWWLTTISTDLTFSVKSSRGSSDPQGVTCGAATLSAERVRGDNKEYEYSVECQEDSACPAAEESLPIEVMVDAVHKLKYENYTSSFFIRDIIKPDPPKNLQLKPLKNSRQVEVSWEYPDTWSTPHSYFSLTFCVQVQGKSKREKKDRVFTDKTSATVICRKNASISVRAQDRYYSSSWSEWASVPCS
B3: cyclic peptide no. 2HT AA (peptide)
peptide: AKMTWVDYWLKNCA
modifications: cyclic: head-to-tail amide bond (alanine to alanine)
notes: cyclised form of linear peptide no; also called cyclic polypeptide no; 2HT AA (Head to Tail: Alanine to Alanine)

Experiment [1] has as its target T1, WT IL-23 cytokine (wild type p19 + p40, expressed in 293T cells) (human, UniProt Q9NPF7 20-189; P29460 23-328).
T1 construct: conditioned medium in the ELISAs; purified on HisTALON for the reporter assay; also called isolated WT IL-23 cytokine; not shown: 6xHis tag at the C-terminus
T1 sequence (looked up) 1: B2 chain 1
T1 sequence (looked up) 2: B2 chain 2
Put plainly: ELISA of conditioned media on coated IL-23R-Fc, anti-p40 detection. On the technique in general: ELISA stands for enzyme-linked immunosorbent assay.

Experiment [2] has as its target B1. Put plainly: competitive ELISA against IL-23 (50 ng/well) on coated IL-23R-Fc.
The target of experiment [3] is B1. Put plainly: phage display panning, protein A capture.
In experiment [4] the target is B1. Put plainly: phage ELISA on coated IL-23R/Fc, anti-M13 detection.
The target of experiment [5] is B1. Put plainly: competitive ELISA on coated IL-23R-Fc, 50 µM peptide.
For experiment [6], the target named is T2, human IL-23R expressed on the cell surface (human, UniProt Q5VWK5 24-629).
T2 sequence (looked up): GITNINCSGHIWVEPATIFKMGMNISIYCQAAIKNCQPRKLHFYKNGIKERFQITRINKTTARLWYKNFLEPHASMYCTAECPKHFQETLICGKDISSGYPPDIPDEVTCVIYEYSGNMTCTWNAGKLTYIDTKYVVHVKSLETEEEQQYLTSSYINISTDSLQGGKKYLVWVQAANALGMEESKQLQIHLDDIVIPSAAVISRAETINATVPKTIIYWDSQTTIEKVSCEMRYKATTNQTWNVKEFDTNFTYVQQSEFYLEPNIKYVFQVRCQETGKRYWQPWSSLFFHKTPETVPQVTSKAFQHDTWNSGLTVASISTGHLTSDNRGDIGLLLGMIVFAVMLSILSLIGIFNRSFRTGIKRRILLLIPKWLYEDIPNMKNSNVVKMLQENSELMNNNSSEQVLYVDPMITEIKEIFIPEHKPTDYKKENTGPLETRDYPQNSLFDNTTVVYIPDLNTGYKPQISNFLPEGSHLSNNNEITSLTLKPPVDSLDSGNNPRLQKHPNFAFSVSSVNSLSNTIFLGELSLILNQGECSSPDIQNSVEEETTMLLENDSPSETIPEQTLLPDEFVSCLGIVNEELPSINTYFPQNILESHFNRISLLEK
Put plainly: cell-based or functional assay.

For experiment [7], the target named is T3, recombinant mouse IL-23R-Fc (mouse, UniProt Q8K4B4 24-374, limits assumed).
T3 construct: whole entry named; not shown: Fc part, not described
T3 sequence (looked up): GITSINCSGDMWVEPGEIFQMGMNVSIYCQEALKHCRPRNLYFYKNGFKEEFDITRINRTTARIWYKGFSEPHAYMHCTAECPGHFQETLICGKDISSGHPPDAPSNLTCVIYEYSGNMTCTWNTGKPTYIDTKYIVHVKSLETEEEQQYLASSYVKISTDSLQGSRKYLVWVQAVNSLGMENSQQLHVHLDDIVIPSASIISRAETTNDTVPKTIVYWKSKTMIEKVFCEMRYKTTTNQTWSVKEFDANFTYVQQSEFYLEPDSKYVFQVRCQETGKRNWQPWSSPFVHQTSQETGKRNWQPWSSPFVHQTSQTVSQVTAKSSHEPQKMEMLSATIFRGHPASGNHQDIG
Put plainly: competitive ELISA against mouse IL-23 on coated mouse IL-23R-Fc.

Experiment [8] has as its target IL-23 receptor on Sprague Dawley rat splenocytes (rat). Put plainly: cell-based or functional assay.
Experiment [9] has as its target B1. Put plainly: cell-free competitive ELISA against IL-23 on coated IL-23R-Fc.

Bridges are numbered along the chain shown (N, C = ends). Where no end group is shown, it is not given here.

Consider B1, for which, in experiment [1], the binding result is on record as “binds”.

One may read the IC50 as the concentration needed to halve the response being measured. Turning to AMTWEDWWLYGR (also called peptide number 23) [synthetic polypeptide no. 23], in [2], the concentration for half-maximal inhibition (IC50) is 0 to 1560 nM.

SALSWEHYWRKH (peptide, not shown: large carriers, also called no) [M13 phage displaying polypeptide no. 20]: in [3], the binding result was “binds”.

Take NWTSQLHTGIST (peptide, not shown: large carriers, also called nos) [M13 phage displaying polypeptide no. 5]: in [4], the binding result is given as “binds”.

In the case of YSWEWYATRFVQ (peptide, not shown: large carriers) [M13 phage displaying polypeptide no. 13], in [3], the binding result is on record as “binds”.

Turning to SGASFVQYWVQR [modified synthetic polypeptide no. 1.1], the “OD450 of bound IL-23 with the peptide as competitor” value in [5] was not below 0.4 OD450.

For SGASFVQYFVQR [modified synthetic polypeptide no. 1.3], in experiment [5], the “OD450 of bound IL-23 with the peptide as competitor” value was not below 0.4 OD450.

As to SGASWVQYFVQR [modified synthetic polypeptide no. 1.2], the “OD450 of bound IL-23 with the peptide as competitor” value in [5] is not below 0.4 OD450.

Turning to TSWQSFWHHHNT (peptide, not shown: large carriers) [M13 phage displaying polypeptide no. 32], in experiment [3], the binding result was “binds”.

For QSDTWMTYWKHH (peptide, not shown: large carriers) [M13 phage displaying polypeptide no. 7], in experiment [4], the binding result was “binds”.

On to TENWWTMVPRWM (peptide, not shown: large carriers) [M13 phage displaying polypeptide no. 2], for which, in [3], the binding result is given as “binds”.

For the molecule SGASWVQYWVQR (also called peptide number 1) [synthetic polypeptide no. 1], in experiment [6], the “relative level of p-STAT3/STAT3 at 50 µM peptide” value was approximately 0.6 ratio; the “relative level of p-STAT3/STAT3 at 100 µM peptide” value was approximately 0.3 ratio; the “relative p-STAT3/STAT3 level at 10 µM, 5 µM and 1 µM peptide” value was more than 1.5 ratio. In addition, the 50% inhibitory concentration (IC50) in [2] is 6250 to 12500 nM.

For MPDWHAFYLQAQ (peptide, not shown: large carriers) [M13 phage displaying polypeptide no. 6], the binding result in [4] is reported as “binds”.

Take AWQDVWKMHNKV (peptide, not shown: large carriers) [M13 phage displaying polypeptide no. 25]: in experiment [3], the binding result is on record as “binds”.

For DSDWRWFWENHW (peptide, not shown: large carriers) [M13 phage displaying polypeptide no. 15], the binding result in [3] is recorded as “binds”.

In the case of AETPSWYNYWMN (peptide, not shown: large carriers, also called nos) [M13 phage displaying polypeptide no. 4], the binding result in [4] is on record as “binds”.

B2: in experiment [6], the “reporter luciferase activity, DB STAT3-Luc cells, 50 ng/ml” value was approximately 10 fold.

In the case of EPFAWHAYWVRN (peptide, not shown: large carriers) [M13 phage displaying polypeptide no. 29], the binding result in [3] is listed as “binds”.

With DQERWLSYFLGT (peptide, not shown: large carriers) [M13 phage displaying polypeptide no. 3], the binding result in experiment [3] was “binds”.

For the molecule AVWQNYWNEQLY (peptide, not shown: large carriers) [M13 phage displaying polypeptide no. 22], the binding result in [3] was “binds”.

Turning to HDWQTYWVTRER (peptide, not shown: large carriers) [M13 phage displaying polypeptide no. 30], the binding result in [3] is “binds”.

Regarding STWQEYYDVWQK (peptide, not shown: large carriers) [M13 phage displaying polypeptide no. 18], in experiment [3], the binding result is on record as “binds”.

As for DDWMQYWRQQVR [synthetic polypeptide no. 27], in experiment [2], the IC50 is approximately 1560 nM.

Take NWIDWWTQSEKH (peptide, not shown: large carriers) [M13 phage displaying polypeptide no. 19]: in [3], the binding result was “binds”.

For NWATYWQLRHQT (also called peptide number 9) [synthetic polypeptide no. 9], the IC50 in [2] is approximately 3000 nM.

Take CAMTWQDYWLYGRC (disulfide 1-14, also called cyc23.15) [cyclic polypeptide no. 23.19]: the “IC50, DB STAT3-Luc reporter cells, 50 ng/ml IL-23” value in [6] is 2.5 µM. For the same molecule, the 50% inhibitory concentration (IC50) in experiment [7] was determined as 12.5 µM.

Take B3: in [8], the “IC50, IL-17F mRNA (qRT-PCR) in rat splenocytes, 200 ng/ml IL-23” value is 270 nM. In [6], the “IC50, IL-17F production (ELISA) in differentiated human Th17 cells, 1 ng/ml IL-23” value was 339 nM; the “IC50, IL-22 production (ELISA) in human PBMC, 2 ng/ml IL-23” value was determined as 338 nM; the “IC50, cell-based DB-Luc assay” value turned out to be 342 nM. In addition, in [9], the IC50 worked out at 8.1 nM.

Consider ASWEMYWATSYN (peptide, not shown: large carriers) [M13 phage displaying polypeptide no. 10], for which the binding result in [4] was “binds”.
